Test results reported in paper PMC11055898.

Columns and labels:
Assay in all cases: SPR
[1] = biological target: mouse neonatal Fc receptor (FcRn) (mouse) (UniProt Q61559)
mouse CD64 = biological target: mouse CD64
mouse CD16-2 = biological target: mouse CD16-2
human FcRn = biological target: human FcRn
[2] = biological target: human CD64 (FcgRI) (human) (UniProt P12314)
Chain of human CD64 (FcgRI) (human) (P12314 16-374): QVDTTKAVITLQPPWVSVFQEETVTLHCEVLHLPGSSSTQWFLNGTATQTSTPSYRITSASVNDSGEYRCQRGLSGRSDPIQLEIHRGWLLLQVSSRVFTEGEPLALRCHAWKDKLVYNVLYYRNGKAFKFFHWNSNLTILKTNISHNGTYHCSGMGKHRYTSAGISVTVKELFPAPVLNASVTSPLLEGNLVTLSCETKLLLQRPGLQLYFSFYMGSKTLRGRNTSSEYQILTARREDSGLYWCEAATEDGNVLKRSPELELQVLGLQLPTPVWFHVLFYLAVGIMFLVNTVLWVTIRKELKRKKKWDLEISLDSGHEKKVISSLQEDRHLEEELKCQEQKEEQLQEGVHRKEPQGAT

Chain of human IgG3 (antibody specific for the receptor binding domain of SARS-CoV-2, clone not named) (P01860 whole entry, looked up, the tested form may be a part): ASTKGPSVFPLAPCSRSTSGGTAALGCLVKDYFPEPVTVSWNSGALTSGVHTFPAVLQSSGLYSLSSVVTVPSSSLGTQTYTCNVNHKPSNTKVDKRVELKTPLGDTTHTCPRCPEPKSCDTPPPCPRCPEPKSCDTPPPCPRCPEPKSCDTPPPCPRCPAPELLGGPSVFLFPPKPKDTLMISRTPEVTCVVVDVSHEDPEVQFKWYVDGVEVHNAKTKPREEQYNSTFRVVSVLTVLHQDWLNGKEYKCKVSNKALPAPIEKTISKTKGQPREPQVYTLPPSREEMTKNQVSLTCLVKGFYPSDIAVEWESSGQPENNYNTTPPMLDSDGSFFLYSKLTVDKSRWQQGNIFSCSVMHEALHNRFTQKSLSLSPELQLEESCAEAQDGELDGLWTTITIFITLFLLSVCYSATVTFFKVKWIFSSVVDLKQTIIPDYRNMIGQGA
Chain of mouse neonatal Fc receptor (FcRn) (mouse) (Q61559 22-297): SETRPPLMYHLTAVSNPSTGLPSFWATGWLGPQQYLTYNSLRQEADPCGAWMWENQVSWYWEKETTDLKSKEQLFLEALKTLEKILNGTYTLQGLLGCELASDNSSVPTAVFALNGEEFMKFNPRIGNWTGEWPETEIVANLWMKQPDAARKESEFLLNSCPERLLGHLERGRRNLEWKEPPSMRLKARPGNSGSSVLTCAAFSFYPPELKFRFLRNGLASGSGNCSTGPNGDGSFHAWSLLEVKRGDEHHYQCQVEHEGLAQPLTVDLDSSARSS

Substance: human IgG1 (antibody specific for the receptor binding domain of SARS-CoV-2, clone not named) (from UniProt P01857)
- Kd [1]: 9.9 nM
- koff [1]: 0.001 s⁻¹
- Kd (mouse CD64): 246 nM
- koff (mouse CD64): 0.062 s⁻¹
- Kd (mouse CD16-2): 415 nM
- koff (mouse CD16-2): 0.0275 s⁻¹
- Kd (human FcRn): 300 nM
- koff (human FcRn): 0.088 s⁻¹
- Kd [2]: 2.4 nM
- koff [2]: 0.00014 s⁻¹

Substance: human IgG3 (antibody specific for the receptor binding domain of SARS-CoV-2, clone not named) (from UniProt P01860)
- Kd (mouse CD64): 14 nM
- koff (mouse CD64): 0.0014 s⁻¹
- Kd [2]: 8.1 nM
- koff [2]: 0.00033 s⁻¹
